Measurements taken from patent CN114656564A (ANHUI ANKE BIOLOGICAL ENG GROUP CO LTD, dated 2022).

T1: rhOX40-Avi-His (human, UniProt P43489 29-214)
T1 construct: range 29-214; Recombinant protein made from plasmid pCD-OX40-Avi-His; also called OX40抗原; 抗原蛋白OX40; not shown: Avi tag; His tag
T1 sequence (looked up): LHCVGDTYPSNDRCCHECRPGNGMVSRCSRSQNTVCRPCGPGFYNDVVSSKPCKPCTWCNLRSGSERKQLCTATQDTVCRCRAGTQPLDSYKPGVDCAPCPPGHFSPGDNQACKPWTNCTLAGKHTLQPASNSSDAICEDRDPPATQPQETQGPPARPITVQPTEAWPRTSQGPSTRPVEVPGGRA

T2: human OX40 expressed on Jurkat cells (Jurkat-OX40-NFκB-Luc) (human, UniProt P43489 29-277)
T2 construct: whole, on cells; also called Jurkat-OX40-NFκB-21C6; 表达OX40抗原的Jurkat细胞系
T2 sequence (looked up): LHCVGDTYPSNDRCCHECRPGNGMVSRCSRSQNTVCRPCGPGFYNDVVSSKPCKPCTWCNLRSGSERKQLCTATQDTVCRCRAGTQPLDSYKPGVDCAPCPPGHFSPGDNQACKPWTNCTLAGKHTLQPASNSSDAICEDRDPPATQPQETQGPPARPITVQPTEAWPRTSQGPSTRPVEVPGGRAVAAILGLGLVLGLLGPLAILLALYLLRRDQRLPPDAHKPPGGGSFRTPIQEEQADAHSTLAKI

T3: rhOX40-Avi-His-bio (human, UniProt P43489 29-214, biotin covalently attached to the Avi tag by BirA)
T3 construct: range 29-214; Biotinylated form of rhOX40-Avi-His, captured on SA chip in SPR; also called 生物素标记的抗原; not shown: Avi tag (biotinylated); His tag
T3 sequence (looked up): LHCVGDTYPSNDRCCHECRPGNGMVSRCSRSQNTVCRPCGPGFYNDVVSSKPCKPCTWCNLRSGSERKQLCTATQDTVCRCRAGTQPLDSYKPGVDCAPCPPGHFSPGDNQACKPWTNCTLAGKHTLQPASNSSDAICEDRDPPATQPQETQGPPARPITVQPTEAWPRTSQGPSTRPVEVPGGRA


Assays:
rhOX40-Avi-His = target: T1, rhOX40-Avi-His; assay: ELISA on coated rhOX40-Avi-His
[1] = target: T2, human OX40 expressed on Jurkat cells …; assay: flow cytometry on Jurkat cells expressing OX40, anti-human Fc-FITC
rhOX40-Avi-His-bio = target: T3, rhOX40-Avi-His-bio; assay: SPR (T200), biotinylated rhOX40-Avi-His-bio captured on SA chip, D7-Fc as analyte

Binder | binding result (rhOX40-Avi-His) | binding result [1] | Kd (rhOX40-Avi-His-bio) [nM]
A1-Fc (Fc fusion, not shown: IgG1 Fc region, from human) DVQLVESGGGLVQPGGSLRLSCAASGFSYNRTDIRWFRQAPGKGRELVAGIANWGGTTYYADSVKGRFTISRDNAKNTVYLQMNSLRAEDTAVYYCARRRYECVDWIVDPWWDYWGQGTQVTVSA | binds | binds | 
D2-Fc (Fc fusion, not shown: IgG1 Fc region, from human) DVQLVESGGGLVQPGGSLRLSCAASGLTSSLYIWGWFRQAPGKGREWVSTIWDADVTDYADSVKGRFTISRDNAKNTVYLQMNSLRAEDTAVYYCARRDFDSLADGLDYWGQGTQVTVSA | binds | binds | 
C7-Fc (Fc fusion, not shown: IgG1 Fc region, from human) DVQLVESGGGLVQPGGSLRLSCAASGSIPSDTAMYWFRQAPGKGREWVSVIWGSGVTYYADSVKGRFTISRDNAKNTVYLQMNSLRAEDTAVYYCARTGLGRAYWGQGTQVTVSA | binds |  | 

The next lines start with the values.

binding result (rhOX40-Avi-His) | binding result [1] | Kd (rhOX40-Avi-His-bio) [nM] | Binder
binds |  |  | D12-Fc (Fc fusion, not shown: IgG1 Fc region, from human) DVQLVESGGGLVQPGGSLRLSCAASGRQFGSYAMSWFRQAPGKGREWVSTIDSAGGSTNYADSVKGRFTISRDNAKNTVYLQMNSLRAEDTAVYYCARLIDWYCIDYFDYWGQGTQVTVSA
binds | binds |  | D1-Fc (Fc fusion, not shown: IgG1 Fc region, from human) DVQLVESGGGLVQPGGSLRLSCAASGRTASGYTIGWFRQAPGKGRELVSAINRAGSATHYADSVKGRFTISRDNAKNTVYLQMNSLRAEDTAVYYCARSGRWGRYWLAYWGQGTQVTVSA
 |  | ~16.8 | D7-Fc (Fc fusion, not shown: IgG1 Fc region, from human) DVQLVESGGGLVQPGGSLRLSCAASGFTASIYGMRWFRQAPGKGRELVAGIVDAGSATYYADSVKGRFTISRDNAKNTVYLQMNSLRAEDTAVYYCARGNHEGEVGLDYWGQGTQVTVSA
